Patent publication US20250066499A1 (SUNSHINE GUOJIAN PHARMACEUTICAL SHANGHAI, published 2025)
Substitutions are numbered along the chain they refer to.

Legend:
Assay in all cases: ELISA; decline multiple of EC50 against CD73-ND
[1] = biological target: T1, CD73-ND-V137A (human, UniProt P21589 27-317)
T1 construct: Alanine mutant of CD73-ND
T1 sequence: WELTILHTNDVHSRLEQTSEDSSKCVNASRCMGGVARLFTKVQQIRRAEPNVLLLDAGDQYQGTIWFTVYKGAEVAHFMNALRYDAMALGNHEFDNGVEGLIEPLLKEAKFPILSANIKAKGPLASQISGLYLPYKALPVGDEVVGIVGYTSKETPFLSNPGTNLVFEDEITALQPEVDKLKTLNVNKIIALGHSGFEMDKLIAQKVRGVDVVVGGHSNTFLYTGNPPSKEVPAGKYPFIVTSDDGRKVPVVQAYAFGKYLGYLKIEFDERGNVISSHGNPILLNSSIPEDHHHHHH
Method: (§1) The ELISA plates were coated with SA protein diluted to 1.5 μg/mL in coating buffer (50 mM carbonate coating buffer, pH 9.6) and incubated overnight at 4° C. The supernatant was discarded, and the plates were washed three times with PBST. Then, 5% skimmed milk powder prepared with PBS was added for blocking and the plates were incubated for 2 h at 37° C. After washing the plates once with PBST, CD73-biotin protein (prepared by biotinylating CD73-His protein according to the EZ-Link NHS-Biotin Reagent instructions) was diluted to 0.5 μg/mL and added at 100 μL/well for incubation at room temperature for 1 h. The plates were washed three times with PBST, and the prepared murine-derived monoclonal antibodies against human CD73 were serially diluted with 1% BSA buffer prepared with PBST and added to the ELISA plates at 100 μl/well. The plates were incubated at 37° C. for 1 h. After washing the plates three times with PBST, HRP-labeled goat anti-mouse IgG secondary antibody was added and the plates were incubated for 30 min at 37° C. After washing the plates three times with PBST, the residual droplets were patted dry on absorbent paper as much as possible. Then, 100 μl of TMB color developing solution was added to each well, and the plates were incubated in the dark at room temperature for 5 min for color development. Subsequently, 50 μl of 2M H₂SO₄ stop solution was added to each well to terminate the substrate reaction. The OD values were read at 450 nm using a multimode microplate reader to analyze the binding ability of the tested antibodies to the target antigen human CD73-His.
(§2) Referring to the experimental method in Example 3, the affinity of 48A11-HuV33 for various mutant proteins of CD73-ND was determined. The SA protein was diluted to 1 μg/mL for coating the ELISA plates, and the biotinylated CD73 protein (CD73-biotin) was used at a concentration of 0.1 μg/mL.

[2] = biological target: T2, CD73-ND-L133A (human, UniProt P21589 27-317)
T2 construct: Alanine mutant of CD73-ND
T2 sequence: T1 sequence with L133A, A137V
Method: as §1, §2

[3] = biological target: T3, CD73-ND-K136A (human, UniProt P21589 27-317)
T3 construct: Alanine mutant of CD73-ND
T3 sequence: T1 sequence with K136A, A137V
Method: as §1, §2

[4] = biological target: T4, CD73-ND-Y135A (human, UniProt P21589 27-317)
T4 construct: Alanine mutant of CD73-ND
T4 sequence: T1 sequence with Y135A, A137V
Method: as §1, §2

[5] = biological target: T5, CD73-ND-his (human, UniProt P21589 27-317)
T5 construct: Biotinylated and captured on streptavidin in the ELISA
T5 sequence: T1 sequence with A137V
Method: as §1, §2

[6] = biological target: T6, CD73-ND-P134A (human, UniProt P21589 27-317)
T6 construct: Alanine mutant of CD73-ND
T6 sequence: T1 sequence with P134A, A137V
Method: as §1, §2

B1: 48A11-HuV33 (antibody, human IgG4, V domains shown)
VH: QVQLVQSGAEVKKPGASVKVSCKASGYTFTSYWMHWVRQAPGQGLEWIGEINPSIGRTNYNEKFKSRVTLTRDTSTSTAYMELSSLRSEDTAVYYCARRVYGTMDYWGQGTLVTVSS
VL: DIQMTQSPSSLSASVGDRVTITCKASQDINSYLSWFQQKPGKSPKLLIYRANIWVDGVPSRFSGSGSGQDYTFTISSLQPEDIATYYCLQYDELYTFGQGTKVEIK
notes: Humanized
B1 was tested, and the “Ratio(EC50)” value [1] was 5.9 fold, the “Ratio(EC50)” value [2] was 169 fold and the “Ratio(EC50)” value [3] was 1 fold. For the same binder, the “Ratio(EC50)” value [4] was 1.1 fold, the “Ratio(EC50)” value [5] was 1 fold and the “Ratio(EC50)” value [6] was 1.3 fold.
